The text below walks through data of paper PMC2725191.

This experiment has as its target Biotinylated tubulin (bovine brain tubulin labelled with NHS-LC-biotin), held on a streptavidin layer (bovine) (UniProt Q6B856). The experiment is described as follows: dual polarization interferometry.

The substance “Tubulin (alpha/beta heterodimer), purified from bovine brain (from UniProt Q6B856 1-445) (complex)” yielded a rate of thickness increase after the inflection point (microtubule growth) of 0.436 nm/min.
